Residue numbers refer to the chain shown, from its start. In names and notes the source's numbering stands.

The series “SEC-MALS” concerns the molecule itself. Put plainly: SEC-MALS. For orientation: SEC sorts molecules by how far they enter the pores of the column.
Series [1] addresses T1, MBP-tagged FoxP3^RBR-forkhead (mouse, UniProt Q99JB6 284-423).
T1 sequence (looked up): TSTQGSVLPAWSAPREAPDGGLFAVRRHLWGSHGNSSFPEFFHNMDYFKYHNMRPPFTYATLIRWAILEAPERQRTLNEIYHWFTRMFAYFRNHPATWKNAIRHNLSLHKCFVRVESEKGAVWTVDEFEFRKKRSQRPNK
Put plainly: pull-down.

The series “SEC” concerns the molecule itself. Put plainly: SEC.

B1: NusA-tagged FoxP3^ΔN (domain or fragment, mouse, UniProt Q99JB6 188-423, looked up)
chain: GSYPLLANGVCKWPGCEKVFEEPEEFLKHCQADHLLDEKGKAQCLLQREVVQSLEQQLELEKEKLGAMQAHLAGKMALAKAPSVASMDKSSCCIVATSTQGSVLPAWSAPREAPDGGLFAVRRHLWGSHGNSSFPEFFHNMDYFKYHNMRPPFTYATLIRWAILEAPERQRTLNEIYHWFTRMFAYFRNHPATWKNAIRHNLSLHKCFVRVESEKGAVWTVDEFEFRKKRSQRPNK
On to B1, for which the “stoichiometry N” value in “SEC-MALS” came out at 2.

B2: GST-tagged Runx1 (residue 371–451) (domain or fragment, mouse, UniProt Q03347 371-451, looked up)
chain: GSPSYHLYYGASAGSYQFSMVGGERSPPRILPPCTNASTGAALLNPSLPSQSDVVETEGSHSNSPTNMPPARLEEAVWRPY
On to B2, for which, in series [1], the binding result is “binds”.

B3: NusA-tagged FoxP3^RBR-forkhead R337Q (domain or fragment, mouse, UniProt Q99JB6 284-423, looked up)
chain: T1 sequence (looked up) with R54Q
For the molecule B3, in “SEC-MALS”, the “stoichiometry N” value came to 2.

B4: Recombinant Y373V FoxP3^RBR-forkhead (domain or fragment, mouse, UniProt Q99JB6 284-423, looked up)
chain: T1 sequence (looked up) with Y90V
Take B4: the “stoichiometry N” value in the series “SEC” was 4.

One may read the stoichiometry N as the number of molecules, sites or subunits per partner or assembly.
